# Measured values: patent US11110182B2, “Multifunctional RNA nanoparticles and methods for treating cancer and therapeutic resistant cancer” (University of Cincinnati, priority 2016, dated 2021)
# B1: pRNA-HER2apt-siMED1: 3-WJ pRNA nanoparticle bearing a HER2-targeting RNA aptamer and two different MED1 siRNAs; strands p1 SEQ ID NO: 3, p2 SEQ ID NO: 4 (nucleic acid)
# chain 1: GGACAGUGAAAGUGAGUCAAAGGAUCAAUCAUGGCCAAAGAUGUUACUUUGAGAGCCUU
# chain 2: GGCUCUCAAAGUAACAUCUAAGGCCAUGUGUAUGUGGGGGGAGGACGAUGCGGUCUGCUGUGCUUGAUAUGCCCCAGACGACUCGCCCCCCACAUACUUUGUUGAUCCAAUGACUCACUUUCACUGUCCUU
# modifications: 2'-F modification; third strand may lack entry; pRNA-HER2apt-siMED1, p1; pRNA-HER2apt-siMED1, p2
# B2: pRNA-HER2apt^mut-siMED1: control pRNA nanoparticle with mutant HER2 aptamer; strands p1 SEQ ID NO: 5, p2 SEQ ID NO: 6 (nucleic acid)
# chain 1: B1 chain 1
# chain 2: GGCUCUCAAAGUAACAUCUAAGGCCAUGUGUAUGUGGGAUGAGGAGUAUGAAGAUACCUGUACUUGAUAUGCCCCAGACGACAUUCCCCCCACAUACUUUGUUGAUCCAAUGACUCACUUUCACUGUCCUU
# modifications: pRNA-HER2apt(mut)-siMED1, p1; pRNA-HER2apt(mut)-siMED1, p2
# Test system: MED1 mRNA
# Experiment: MED1 mRNA level by real-time PCR in BT474 cells
# Format: cell-based, human
# Settings: BT474, 10 μg/mL, 48 h, direct incubation
# Procedure: FIG. 3A) BT474 cells were incubated with 10 μg/mL control and pRNA-HER2apt-siMED1 nanoparticles for 48 h, and MED1 mRNA level was determined by real-time PCR. FIG. 3B) BT474 cells were incubated directly with (as indicated by -) or transfected with indicated pRNAs using lipofectamine 2000. At 48 h post treatment, MED1 protein levels were determined by western blotting. FIG. 3C) BT474 cells were treated with 10 μg/mL pRNA nanoparticles for 48 h and assayed for cell viability by MTT assay. FIG. 3D) Cells were treated as above and seeded for migration, and FIG. 3E) invasion transwell assays. Scale bar: 50 μm. FIG. 3F) After pRNA treatment for 48 h, the mRNA levels of ERα target genes TFF-1, FIG. 3G) c-Myc, and FIG. 3H) cyclin D1 in BT474 cells were determined by real-time PCR.
# Cell culture. […] The hydrodynamic diameter and Tm value of pRNA nanoparticles were determined using dynamic light scattering and TGGE assay, respectively, as previously described.^54 The AFM imaging of the pRNA nanoparticles was performed at the University of Nebraska Medical Center imaging facility as previously reported.^55 Briefly, the pRNA nanoparticles (5 μL) were deposited on APS modified mica ^56 for a total of 2 min of incubation time. […] After washing three times with PBS, the cellular uptake of pRNAs was determined using a BD LSRFortessa™ flow cytometer. • Real-time PCR. […]
row,Molecule,depletion of MED1 mRNA
1,B1,~70%
2,B2,not
